The values below come from paper PMC9696605 (Viruses, 2022).

Where no end group is shown, it is not given here. [ ]: non-standard residue; d: D form. pT = C[C@@H](OP(=O)(O)O)[C@H](N)C(=O)O Some results are limits rather than exact numbers.

As a reminder, the Kd is the equilibrium constant for the complex coming apart. Read a high Kd as weaker binding.

The target of test [1] is T1, SH3 domain of human Fyn (Fyn-SH3), 15N-labelled (human, UniProt P06241 82-142).
T1 construct: also called 15N-Fyn-SH3
Nature of the test: NMR titration. The conditions noted are these: both partners purified.

In test [2] the target is human neural precursor cell expressed developmentally down-regulated protein 4-like WW3* domain (hNedd4L-WW3*) (human, UniProt Q96PU5 497-530). Nature of the test: ITC. The conditions noted are these: both partners purified.
Chain of human neural precursor cell expressed developmentally down-regulated protein 4-like WW3* domain (hNedd4L-WW3*) (Q96PU5 497-530): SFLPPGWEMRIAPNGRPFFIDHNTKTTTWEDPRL

T1 sequence (P06241 82-142): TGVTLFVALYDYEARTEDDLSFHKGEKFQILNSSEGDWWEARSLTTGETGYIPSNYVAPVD

B1: U24-6B(1-15), 15-residue peptide of the N-terminal region of U24 from HHV-6B (peptide)
peptide: MDRPRTPPPSYSEVL
notes: source: synthetic peptide (Fmoc solid phase, C18 HPLC purified)
For B1, the Kd in test [1] was found to be 500 ± 200 µM; in test [2] it was 8.9 µM.

B2: U24-6A(1-15), 15-residue peptide of the N-terminal region of U24 from HHV-6A (peptide)
peptide: MDPPRTPPPSYSEVL
notes: as for B1
Take B2: the Kd in test [2] was 8.5 µM.

B3: pU24-6A(1-15), U24-6A peptide with phospho-threonine 6 (peptide)
peptide: MDPPR[pT]PPPSYSEVL
notes: source: synthetic peptide, bought: Genscript
Consider B3, for which the Kd in test [1] is at least 12000 µM.

B4: pU24-6B(1-15), U24-6B peptide with phospho-threonine 6 (peptide)
peptide: MDRPR[pT]PPPSYSEVL
notes: as for B3
B4 displayed a Kd in test [1] of at least 5000 µM.
